Assay results from US20110045007A1 (Genmab, published 2011).

Molecular target: T1, human C1q (human, UniProt P02745 23-245; P02746 28-253; P02747 29-245)
T1 construct: Bought protein; also called first component of the classical complement cascade
Assay: ELISA, antibody coated, C1q detected with rabbit anti-human C1q
Procedure: In short, microtiter ELISA plates (Greiner, Germany) were coated overnight at RT with the test antibodies serially diluted from 10 μg/ml to 0.06 μg/ml in PBS. Plates were emptied and wells were blocked with 200 μl ELISA-diluent per well (0.1 M NaPO₄, 0.1 M NaCl, 0.1% gelatin and 0.05% Tween-20), at RT for 30 minutes. […] After washing the plates (3×) with PBST, wells were incubated with HRP-conjugated swine anti-rabbit IgG-Fc (DAKO, P0300, lot #069) diluted in ELISA diluent (1:2500, 100 μl/well, RT, 1 hour). Thereafter, plates were washed thrice and assays were developed with freshly prepared 1 mg/ml ABTS solution (ABTS: 2,2′-azino-bis[3-ethylbenzthiazoline-6-sulfonic acid]); 2 tablets of 5 mg in 10 ml ABTS buffer, Boehringer Mannheim, Ingelheim, Germany) at RT in the dark for 30 minutes.

T1 sequence (P02745 23-245 limits assumed, chain 1 of 3): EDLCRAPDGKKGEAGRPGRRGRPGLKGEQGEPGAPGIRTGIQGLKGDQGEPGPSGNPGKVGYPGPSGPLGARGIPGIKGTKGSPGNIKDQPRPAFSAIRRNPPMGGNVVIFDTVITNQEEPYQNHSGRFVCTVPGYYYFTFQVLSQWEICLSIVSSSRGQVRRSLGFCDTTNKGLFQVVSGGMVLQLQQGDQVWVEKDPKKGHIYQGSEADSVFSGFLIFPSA
T1 sequence (P02746 28-253 limits assumed, chain 2 of 3): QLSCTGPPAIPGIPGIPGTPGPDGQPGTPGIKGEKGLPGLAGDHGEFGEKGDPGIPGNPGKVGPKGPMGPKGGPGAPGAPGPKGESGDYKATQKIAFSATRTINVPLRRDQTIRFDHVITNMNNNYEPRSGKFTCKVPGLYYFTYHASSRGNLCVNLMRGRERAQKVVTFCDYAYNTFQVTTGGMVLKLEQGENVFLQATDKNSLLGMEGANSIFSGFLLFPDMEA
T1 sequence (P02747 29-245 limits assumed, chain 3 of 3): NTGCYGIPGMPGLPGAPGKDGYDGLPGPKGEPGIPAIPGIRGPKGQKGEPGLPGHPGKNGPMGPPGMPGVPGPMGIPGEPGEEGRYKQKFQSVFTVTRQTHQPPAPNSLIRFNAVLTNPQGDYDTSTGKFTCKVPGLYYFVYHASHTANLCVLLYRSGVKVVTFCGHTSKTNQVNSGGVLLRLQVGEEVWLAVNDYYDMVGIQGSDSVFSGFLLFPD

B1: 7D8-HG (antibody)
heavy: EVQLVESGGGLVQPDRSLRLSCAASGFTFHDYAMHWVRQAPGKGLEWVSTISWNSGTIGYADSVKGRFTISRDNAKNSLYLQMNSLRAEDTALYYCAKDIQYGNYYYGMDVWGQGTTVTVSSASTKGPSVFPLAPCSRSTSESTAALGCLVKDYFPEPVTVSWNSGALTSGVHTFPAVLQSSGLYSLSSVVTVPSSSLGTKTYTCNVDHKPSNTKVDKRVAPEFLGGPSVFLFPPKPKDTLMISRTPEVTCVVVDVSQEDPEVQFNWYVDGVEVHNAKTKPREEQFNSTYRVVSVLTVLHQDWLNGKEYKCKVSNKGLPSSIEKTISKAKGQPREPQVYTLPPSQEEMTKNQVSLTCLVKGFYPSDIAVEWESNGQPENNYKTTPPVLDSDGSFFLYSRLTVDKSRWQEGNVFSCSVMHEALHNHYTQKSLSLSLGK
light: not shown
notes: Half-molecule of one heavy and one light chain; also called hingeless IgG4 anti-CD20; IgG4 HG
- binding result: no binding
